What was measured:
[1] = target: HBcAg (Hepatitis B virus core protein, 21 kDa) (Hepatitis B virus) (UniProt P03146); conditions: affinity qPCR; 7.6 nM HBcAg, 1 nM DNA
[2] = target: HBcAg (Hepatitis B virus core protein, 21 kDa) (Hepatitis B virus) (UniProt P03146); conditions: affinity qPCR on Ni-NTA plate; 0.1 nM aptamer, 0.1-5 nM protein; 20 mM Tris-HCl pH 7.6, 5 mM KCl, 100 mM NaCl, 5 mM MgCl2, 1 mM CaCl2, RT 1 h

HBcAg (Hepatitis B virus core protein, 21 kDa) (Hepatitis B virus), sequence (P03146 whole entry): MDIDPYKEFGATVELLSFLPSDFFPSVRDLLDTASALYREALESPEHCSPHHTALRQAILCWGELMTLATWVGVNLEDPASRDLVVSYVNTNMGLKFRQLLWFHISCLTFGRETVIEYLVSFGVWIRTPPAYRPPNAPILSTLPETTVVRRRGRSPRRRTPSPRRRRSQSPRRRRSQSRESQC

Sequence	binding signal [1]	Kd [2]
AGCAGCACAGAGGTCAGATGACATCTAGAACCAACGGTTCTGTTTGATGAGAATTCGGCCCCTATGCGTGCTACCGTGAA [A-19]	1.17 % bound	
AGCAGCACAGAGGTCAGATGGTTACATGCGCAGTAGCCGACGTACTCTGGTAAAAGGTAGCCTATGCGTGCTACCGTGAA [A-38]	7.2 % bound	160 pM
AGCAGCACAGAGGTCAGATGAGGCCTGGTGATCGTGCCCAGGCCATATGAGCAAGGAACCCCTATGCGTGCTACCGTGAA [A-9]	1 % bound	
AGCAGCACAGAGGTCAGATGTTTCCGAGGGAGTGGAATTAGCAAGGTGGAAGTGTTTCTACCTATGCGTGCTACCGTGAA [A-18]	8.3 % bound	140 pM
AGCAGCACAGAGGTCAGATGTTGCATACGCCAAACAAGCATTGACAAGGTAACCCTGGGCCCTATGCGTGCTACCGTGAA [A-23]	1.45 % bound	

Reference: patent publication US20140148356
